Laboratory results reported in article PMC9620489, “Insights into the structure and function of the histidine kinase ComP from Bacillus amyloliquefaciens based on molecular modeling” (Bioscience Reports, 2022).

Target: T1, ComPS (residues 563-763 of the histidine kinase ComP from Bacillus amyloliquefaciens Q-426) (Bacillus amyloliquefaciens Q-426)
T1 construct: No removal of the 6xHis tag is described; The forward primer F-BaComPS has an NcoI site followed by AT, which may add Met-Asp before R563; also called BaComPS; truncated ComPS protein; source: E. coli BL21 (RIL), pPROEXHTa vector, purified (Ni-NTA)
Experiment: MST; microscale thermophoresis of ComPS with ComA; labelled partner, buffer and temperature not told in the text shown (curve in Supplementary Figure S8)
Details: both partners purified

Kd: 78 µM
B1: response regulator ComA (natural protein)
chain: MKKILVIDDHPAVMEGTKTILETDTNLSVDCLSPDASEQFVLRHDFSAYDLILMDLNLGDDISGIELSKKILKENPLCKIIVYTGYEVEDYFEESIRAGLHGAISKTESKEKIMQYIYHVLNGQILVDFSYFKQLMTQQKTKTSSSPQSEQDRLTPRERHILQEVEKGLTNQEIADALHLSKRSIEYSLTSIFNKLNVGSRTEAVLIAKSDNVL
